Assay results as given in patent US20110201130A1.

Experiments:
[1] = biological target: human B-type natriuretic peptide (human); assay: sandwich CMIA, capture 106.3 AM1, hBNP 0 pg/mL (blank)
[2] = biological target: human B-type natriuretic peptide (human); assay: sandwich CMIA, capture 106.3 AM1, hBNP 30 pg/mL (8.67 pM)
[3] = biological target: human B-type natriuretic peptide (human); assay: sandwich CMIA, capture 106.3 AM1, hBNP 150 pg/mL (43.3 pM)
[4] = biological target: human B-type natriuretic peptide (human); assay: sandwich CMIA, capture 106.3 AM1, hBNP 300 pg/mL (86.6 pM)
[5] = biological target: human B-type natriuretic peptide (human); assay: sandwich CMIA, capture 106.3 AM1, hBNP 1000 pg/mL (288.7 pM)
[6] = biological target: human B-type natriuretic peptide (human); assay: sandwich CMIA, capture 106.3 AM1, hBNP 2000 pg/mL (577.4 pM)
[7] = biological target: human B-type natriuretic peptide (human); assay: sandwich CMIA, capture BNP 3-631-436 ms, hBNP 0 pg/mL (blank)
[8] = biological target: human B-type natriuretic peptide (human); assay: sandwich CMIA, capture BNP 3-631-436 ms, hBNP 30 pg/mL (8.67 pM)
[9] = biological target: human B-type natriuretic peptide (human); assay: sandwich CMIA, capture BNP 3-631-436 ms, hBNP 150 pg/mL (43.3 pM)
[10] = biological target: human B-type natriuretic peptide (human); assay: sandwich CMIA, capture BNP 3-631-436 ms, hBNP 300 pg/mL (86.6 pM)
[11] = biological target: human B-type natriuretic peptide (human); assay: sandwich CMIA, capture BNP 3-631-436 ms, hBNP 1000 pg/mL (288.7 pM)
[12] = biological target: human B-type natriuretic peptide (human); assay: sandwich CMIA, capture BNP 3-631-436 ms, hBNP 2000 pg/mL (577.4 pM)
[13] = biological target: human pro B-type natriuretic peptide (human); assay: sandwich CMIA, capture 106.3AM1, proBNP spike 103 pg/mL, read off hBNP curve
human pro B-type natriuretic peptide (human), sequence (chain, as listed by the source): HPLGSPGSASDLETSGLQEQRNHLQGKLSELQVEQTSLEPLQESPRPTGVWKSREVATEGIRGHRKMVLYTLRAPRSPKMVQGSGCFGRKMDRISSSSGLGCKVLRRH

[14] = biological target: human pro B-type natriuretic peptide (human); assay: sandwich CMIA, capture 106.3AM1, proBNP spike 515 pg/mL, read off hBNP curve
[15] = biological target: human pro B-type natriuretic peptide (human); assay: sandwich CMIA, capture 106.3AM1, proBNP spike 1031 pg/mL, read off hBNP curve
[16] = biological target: human pro B-type natriuretic peptide (human); assay: sandwich CMIA, capture 106.3AM1, proBNP spike 3436 pg/mL, read off hBNP curve
[17] = biological target: human pro B-type natriuretic peptide (human); assay: sandwich CMIA, capture 106.3AM1, proBNP spike 6872 pg/mL, read off hBNP curve
[18] = biological target: human pro B-type natriuretic peptide (human); assay: sandwich CMIA, capture BNP 3-631-436 ms, proBNP spike 103 pg/mL, read off hBNP curve
[19] = biological target: human pro B-type natriuretic peptide (human); assay: sandwich CMIA, capture BNP 3-631-436 ms, proBNP spike 515 pg/mL, read off hBNP curve
[20] = biological target: human pro B-type natriuretic peptide (human); assay: sandwich CMIA, capture BNP 3-631-436 ms, proBNP spike 1031 pg/mL, read off hBNP curve
[21] = biological target: human pro B-type natriuretic peptide (human); assay: sandwich CMIA, capture BNP 3-631-436 ms, proBNP spike 3436 pg/mL, read off hBNP curve
[22] = biological target: human pro B-type natriuretic peptide (human); assay: sandwich CMIA, capture BNP 3-631-436 ms, proBNP spike 6872 pg/mL, read off hBNP curve

human B-type natriuretic peptide (human), sequence (peptide, as listed by the source): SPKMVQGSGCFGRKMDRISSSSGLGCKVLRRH

RLU [1]: 768 RLU
RLU [2]: 1030 RLU
RLU [3]: 3850 RLU
RLU [4]: 8760 RLU
RLU [5]: 65500 RLU
RLU [6]: 223000 RLU
RLU [7]: 803 RLU
RLU [8]: 1340 RLU
RLU [9]: 4690 RLU
RLU [10]: 11900 RLU
RLU [11]: 83500 RLU
RLU [12]: 270000 RLU
Readback [13]: 117 pg/mL
Recovery [13]: 114%
Readback [14]: 190 pg/mL
Recovery [14]: 36.8%
Readback [15]: 456 pg/mL
Recovery [15]: 44.2%
Readback [16]: 1370 pg/mL
Recovery [16]: 39.7%
Readback [17]: 2830 pg/mL
Recovery [17]: 41.2%
Readback [18]: -5.3 pg/mL
Recovery [18]: -7%
Readback [19]: 40.8 pg/mL
Recovery [19]: 10.9%
Readback [20]: 111 pg/mL
Recovery [20]: 14.8%
Readback [21]: 482 pg/mL
Recovery [21]: 19.3%
Readback [22]: 895 pg/mL
Recovery [22]: 17.9%
Substance: monoclonal antibody BC203
